Assay results taken from patent publication US20030124571A1, “Novel human septin and uses therefor” (The Government of the United States of America, priority 2000, published 2003).

What was measured:
caspase 3 = assay: Caspase 3 fluorescent activity assay with aldehyde inhibitor, all cells examined; format: cell-based
Method: (§1) Cells were seeded to 50% confluence in six-well plates in media containing 10% fetal calf serum overnight. Following 24 hours after transfection, cells media was changed to contain 1% fetal calf serum with or without 10 ng/ml TGF-β for additional 24 hours. Cells were treated with caspase 3 aldehyde inhibitor (Ac-DEVD-CHO) supplied with caspase 3 fluorescent activity kit according to the manufacturers' protocols (Pharmingen, San-Diego, Calif.). Results were read using FL-600 microplate fluorescence reader (Bio-Tek).

[1] = tested on: 3TP-Lux promoter construct in NRP-154 cells; assay: p3TP-Lux reporter luciferase assay with ARTS cotransfection, NRP-154 cells; format: cell-based, rat; details: 10 ng/ml TGF-β 24 hours
Method: (§2) NRP-154 and FaO cells were seeded to 50% confluence in six-well plates in DMEM-F12 or DMEM, respectively, containing 10% fetal calf serum overnight.
(§3) Antisense- and sense-ARTS were generated by PCR using ARTS cDNA containing the 5′UTR of ARTS as a template. The PCR fragments were subcloned into the Bam H1-Eco R1 sites of pcDNA3 vector containing the Pcmv promotor (invitrogen, Carlsbad, Calif.).
(§4) NRP-154 cells and FaO cells were transfected with lug/sample p3TP-Lux reporter (a gift from Dr. Joan Massague), which contains 3 repeats of an AP-1 site from the collagenase promoter linked to a short region of the PAI-1 promoter along with equal concentrations of either pcDNA3 control vector (PGL2 vector commercially available from Promega, Madison, Wis.) or the ARTS-pcDNA3 construct, described above.
(§5) The cells were then treated with 10 ng/ml TGF-β for 24 hours.
(§6) After 24 hours, a cell lysate was prepared essentially as described in Part C, above.
(§7) Luciferase activity was determined in the cell lysate using an assay kit (BD Pharmingen, San Diego, Calif.), and a MLX Microtiter plate luminometer (Dynex Technologies, Chantilly, Va.). […]
(§8) Experiments were repeated three times with similar results. The results are expressed as the mean (±SEM) of duplicate luciferase assay, corrected for transfection efficiency.

caspase 3 in A549 cells = assay: Caspase 3 fluorescent activity assay, A549 cells; format: cell-based, human; details: overexpression of ARTS, following TGF-β treatment
Method: as §1

COS cells [2] = assay: TUNEL assay of transfected COS cells; format: cell-based, monkey; details: transfected COS cells, 10 ng/ml TGF-β for 24 hours
Method: COS cells were cultured as previously described (Section E, above). […] When these cells are transfected with ARTS and treatment with TGF-β they are induced to cell death.
COS cells were then transfected with control vector or wildtype ARTS, essentially as described above, and treated with 10 ng/ml TGF-β for 24 hours.
The apoptotic response of COS cells to TGF-β was assessed by a TUNEL assay ([…], now Roche, Indianapolis, Ind.) following the manufacturer's instructions.
COS cells were cultured and transfected, as described above, with equal concentrations of either pcDNA3 control vector, ARTS or M-ARTS-pcDNA3 using the Lipofectamine transfection reagent (Gibco BRL Life Technologies, Gaithersburg, Md.). The cells were treated with 1 o ng/ml TGF-β for 24 hours.
Apoptosis was examined in a TUNEL assay (Boehringer-Mannheim), according to the manufacturer's instructions.

[3] = tested on: caspase 3 in NRP-154 cells; assay: Caspase 3 fluorescent activity assay, NRP-154 cells; format: cell-based, rat; details: 10 ng/ml TGF-β 24 hours
Method: as §1

M-NRP1 cells = assay: Annexin-V apoptosis of GFP-sorted transfected M-NRP1 cells; format: cell-based, rat; details: M-NRP1 cells transfected with wildtype ARTS, 10 ng/ml TGF-β 24 hours
Method: (§9) Cells were seeded to 50% confluence in six-well plates in DMEM-F12 containing 10% fetal calf serum overnight.
(§10) ARTS whole cDNA in PCMV-sport vector was isolated from a human fetal cDNA library in the pcmv-sport vector (Gibco BRL Life Technologies). This vector is different from AU5 tagged vector.
(§11) The NRP-154 and M-NRP1 cells were cotransfected with a total of 2 μDNA, 1 μg ARTS-pcmv-sport and 1 μg a GFP vector (Clontech, Palo-Alto, Calif.), a marker for transfected cells, using Lipofectamine (Gibco BRL Life Technologies, Gaithersburg, Md.) or FuGENE 6 (Boehringer-Mannheim) according to the manufacturer's protocol.
(§12) After 24 hours, cells media was changed to contain 1% fetal calf serum with or without 10 ng/ml TGF-β for an additional 24 hours.
(§13) GFP-positive cells were sorted using FACS.
(§14) The sorted population was stained with streptavidin-sulforhodamin.
(§15) The number of apoptotic cells was measured using the TACS Annexin-V-biotin (Trevigen, Gaithersburg, Md.).

[4] = tested on: 3TP-Lux promoter construct in FaO rat hepatoma cells; assay: p3TP-Lux reporter luciferase assay with ARTS cotransfection, FaO cells; format: cell-based; details: 10 ng/ml TGF-β 24 hours
Method: as §2, §3, §4, §5, §6, §7, §8

NRP-154 cells [5] = assay: Annexin-V apoptosis of GFP-sorted transfected NRP-154 cells; format: cell-based, rat; details: NRP-154 cells overexpressing ARTS
Method: as §9, §10, §11, §12, §13, §14, §15

caspase 3 in COS cells = assay: Caspase 3 fluorescent activity assay, COS cells; format: cell-based, monkey; details: overexpression of construct, following treatment with TGF-β
Method: as §1

COS cells [6] = assay: Apoptosis (nuclear fragmentation, immunofluorescence) of COS cells transfected with ARTS constructs; format: cell-based, monkey
Method: A C-terminal deletion construct lacking the last 24 amino acids of the ARTS protein was constructed and its apoptotic activity in COS cells was examined. […] Thus, the truncated construct is both more rapid in translocating to the nucleus and in inducing apoptosis in response to TGF-β.
COS cells were cultured as desribed previously (Section E, above) and cotransfected with either empty empty AU5 vector (based on pcDNA3 vectors provided by Dr. Silvio Gukind) or ARTS-AU5 with X-vector. ARTS-AU5 was prepared as desribed above. X-vector is a general term to describe any other vector which was cotransfected together with ARTS to asses its effect on ARTS activity.
24 hours after transfection, cell media was changed to contain 1% fetal calf serum with or without 10 ng/ml TGF-β and the cells were incubated for another 24 hours. The cells were then washed twice with PBS and fixed with 4% paraformaldehyde in PBS. Cells were blocked with 5% BSA in PBS for 30 minutes, then incubated with anti-AU5 fluroescein antibodies (Babco, Richmond, Calif.). The cells were also counterstained with DAPI for counting of fragmented nuclei.

COS cells [7] = assay: Immunofluorescence localization / nuclear translocation of ARTS constructs in COS cells; format: cell-based, monkey; details: in response to treatment with TGF-β
Method: (§16) NRP-154 and COS cells were cultured and transfected as described above, and transfected with an ARTS-AU5 tagged construct, essentially as described in Part D, above. The cells were then treated with 10 ng/ml TGF-β.
(§17) An immunofluorescence assay was performed essentially as described in Part G2, above using anti-AU5 antibodies (commercially available Babco, Richmond, Calif.). Anti-AU5 FITC-conjugated secondary antibodies (Pierce) were used to detect transfected ARTS.

NRP-154 cells [8] = assay: Immunofluorescence localization / nuclear translocation of ARTS constructs in NRP-154 cells; format: cell-based, rat; details: following TGF-β treatment
Method: as §16, §17

Molecule: Ac-DEVD-CHO
- TGF-β induced caspase activity (caspase 3): inbitited the TGF-β induced caspase activity

B1: ARTS: Apoptosis Related protein in the TGF-β Signaling pathway; 274 amino acid human septin, SEQ. ID. NO: 2, expressed by transfection (protein, listed as Homo sapiens)
chain: MIKRFLEDTTDDGELSKFVKDFSGNASCHPPEAKTWASRPQVPEPRPQAPDLYDDDLEFRPPSRPQSSDNQQYFCAPAPLSPSARPRSPWGKLDPYDSSEDDKEYVGFATLPNQVHRKSVKKGFDFTLMVAGESGLGKSTLVNSLFLTDLYRDRKLLGAEERIMQTVEITKHAVDIEEKGVRLRLTIVDTPGFGDAVNNTECWKPVAEYIDQQFEQYFRDESGLNRKNIQDNRVHCCLYFISPFGHGYGPSLRLLAPPGAVKGTGQEHQGQGCH
notes: Apoptosis Related protein in the TGF-β Signaling pathway; ID; NO: 2, expressed by transfection
- basal and TGF-β-induced luciferase activity (3TP-Lux) [1]: increased
- caspase 3 activity (caspase 3 in A549 cells): marked increase in caspase 3 activity
- TUNEL staining / competence to undergo apoptosis (COS cells [2]): strong TUNEL staining
- caspase 3 activity [3]: no further effect
- sensitivity to TGF-β induced apoptosis (M-NRP1 cells): restored, in part, the sensitivity
- basal and TGF-β-induced luciferase activity (3TP-Lux) [4]: increased
- effect on TGF-β induced apoptosis (NRP-154 cells [5]): lack of effect
- activation of caspase 3 (caspase 3 in COS cells): marked increase in the activation of caspase 3
- percent transfected apoptotic cells (COS cells [6]; COS cells, within 1 hour of TGF-β treatment): 18%
- induction of apoptosis by overexpression alone (COS cells [6]; COS cells, without TGF-β): does not induce apoptosis
- induction of apoptosis in transfected cells (COS cells [6]; cells treated with TGF-β): increased basal level and TGF-β-induced level of apoptosis

B2: ARTS-AU5: AU5 tagged construct containing the entire ARTS coding sequence in pCEF-AU5 vector (protein)
chain: B1 chain
modifications: left off: small tags and cut ends
- translocation to / localization in the nucleus (COS cells [7]): translocates to from the mitochondria to the nucleus
- translocation to the nucleus (NRP-154 cells [8]): translocates to from the mitochondria to the nucleus
